Reference: the supplement of paper PMC10065799, “High-throughput profiling of sequence recognition by tyrosine kinases and SH2 domains using bacterial peptide display” (eLife, 2023)

Assays:
[1] = molecular target: c-Src SH2; experiment: SH2 binding enrichment of the phosphorylated peptide, bacterial display (enrichment ratio); higher = better substrate or ligand; peptides without Tyr show the background
[2] = molecular target: SHP2-C SH2; experiment: as above
[3] = molecular target: Grb2 SH2 (UniProt P62993); experiment: as above
Sequence of Grb2 SH2 (P62993 whole entry, looked up): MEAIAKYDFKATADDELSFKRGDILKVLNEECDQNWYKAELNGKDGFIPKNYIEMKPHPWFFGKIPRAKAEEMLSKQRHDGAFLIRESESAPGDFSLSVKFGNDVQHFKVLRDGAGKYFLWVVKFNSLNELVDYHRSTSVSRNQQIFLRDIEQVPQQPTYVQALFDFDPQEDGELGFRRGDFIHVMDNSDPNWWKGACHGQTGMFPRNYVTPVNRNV

[4] = molecular target: FGFR1 (UniProt P11362); experiment: phosphorylation enrichment, bacterial display (enrichment ratio); higher = better substrate or ligand; peptides without Tyr show the background
Sequence of FGFR1 (P11362 whole entry, looked up): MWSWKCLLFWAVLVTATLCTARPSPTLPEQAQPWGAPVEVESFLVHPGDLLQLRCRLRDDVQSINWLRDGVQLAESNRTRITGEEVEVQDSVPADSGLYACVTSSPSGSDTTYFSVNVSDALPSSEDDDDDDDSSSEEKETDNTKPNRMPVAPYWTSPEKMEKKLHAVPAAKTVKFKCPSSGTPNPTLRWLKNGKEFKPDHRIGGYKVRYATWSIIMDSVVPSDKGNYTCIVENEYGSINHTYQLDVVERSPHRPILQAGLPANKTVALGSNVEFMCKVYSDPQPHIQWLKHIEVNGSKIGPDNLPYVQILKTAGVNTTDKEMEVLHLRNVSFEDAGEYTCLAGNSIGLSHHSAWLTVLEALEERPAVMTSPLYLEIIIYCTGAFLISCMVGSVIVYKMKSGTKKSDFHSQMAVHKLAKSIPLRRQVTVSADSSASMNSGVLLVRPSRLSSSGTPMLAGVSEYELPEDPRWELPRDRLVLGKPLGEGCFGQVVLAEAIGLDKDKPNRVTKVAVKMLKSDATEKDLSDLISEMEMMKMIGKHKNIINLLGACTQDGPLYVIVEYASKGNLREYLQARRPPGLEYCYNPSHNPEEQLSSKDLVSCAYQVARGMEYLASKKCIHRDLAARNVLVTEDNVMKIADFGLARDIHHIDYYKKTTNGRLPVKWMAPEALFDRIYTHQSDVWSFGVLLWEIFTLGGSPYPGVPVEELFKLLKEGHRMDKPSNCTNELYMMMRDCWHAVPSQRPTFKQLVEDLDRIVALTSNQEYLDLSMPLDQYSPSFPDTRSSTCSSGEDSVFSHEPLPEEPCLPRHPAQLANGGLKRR

[5] = molecular target: Fyn (UniProt P06241); experiment: as above
Sequence of Fyn (P06241 whole entry, looked up): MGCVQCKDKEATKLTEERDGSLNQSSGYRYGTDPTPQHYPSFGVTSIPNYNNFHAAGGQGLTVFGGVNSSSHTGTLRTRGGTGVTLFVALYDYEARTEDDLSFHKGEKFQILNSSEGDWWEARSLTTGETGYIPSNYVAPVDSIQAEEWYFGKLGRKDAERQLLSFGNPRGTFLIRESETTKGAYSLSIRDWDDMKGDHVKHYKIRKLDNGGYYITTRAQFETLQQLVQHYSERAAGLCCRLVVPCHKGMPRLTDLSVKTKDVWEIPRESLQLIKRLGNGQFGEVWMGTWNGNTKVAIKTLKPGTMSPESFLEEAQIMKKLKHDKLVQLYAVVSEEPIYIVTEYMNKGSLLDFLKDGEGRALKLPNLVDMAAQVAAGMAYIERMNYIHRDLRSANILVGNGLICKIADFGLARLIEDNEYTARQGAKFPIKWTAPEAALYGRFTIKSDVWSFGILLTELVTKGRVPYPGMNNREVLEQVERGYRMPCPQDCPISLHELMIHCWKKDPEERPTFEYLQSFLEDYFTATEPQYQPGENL

[6] = molecular target: MERTK (UniProt Q12866); experiment: as above
Sequence of MERTK (Q12866 whole entry, looked up): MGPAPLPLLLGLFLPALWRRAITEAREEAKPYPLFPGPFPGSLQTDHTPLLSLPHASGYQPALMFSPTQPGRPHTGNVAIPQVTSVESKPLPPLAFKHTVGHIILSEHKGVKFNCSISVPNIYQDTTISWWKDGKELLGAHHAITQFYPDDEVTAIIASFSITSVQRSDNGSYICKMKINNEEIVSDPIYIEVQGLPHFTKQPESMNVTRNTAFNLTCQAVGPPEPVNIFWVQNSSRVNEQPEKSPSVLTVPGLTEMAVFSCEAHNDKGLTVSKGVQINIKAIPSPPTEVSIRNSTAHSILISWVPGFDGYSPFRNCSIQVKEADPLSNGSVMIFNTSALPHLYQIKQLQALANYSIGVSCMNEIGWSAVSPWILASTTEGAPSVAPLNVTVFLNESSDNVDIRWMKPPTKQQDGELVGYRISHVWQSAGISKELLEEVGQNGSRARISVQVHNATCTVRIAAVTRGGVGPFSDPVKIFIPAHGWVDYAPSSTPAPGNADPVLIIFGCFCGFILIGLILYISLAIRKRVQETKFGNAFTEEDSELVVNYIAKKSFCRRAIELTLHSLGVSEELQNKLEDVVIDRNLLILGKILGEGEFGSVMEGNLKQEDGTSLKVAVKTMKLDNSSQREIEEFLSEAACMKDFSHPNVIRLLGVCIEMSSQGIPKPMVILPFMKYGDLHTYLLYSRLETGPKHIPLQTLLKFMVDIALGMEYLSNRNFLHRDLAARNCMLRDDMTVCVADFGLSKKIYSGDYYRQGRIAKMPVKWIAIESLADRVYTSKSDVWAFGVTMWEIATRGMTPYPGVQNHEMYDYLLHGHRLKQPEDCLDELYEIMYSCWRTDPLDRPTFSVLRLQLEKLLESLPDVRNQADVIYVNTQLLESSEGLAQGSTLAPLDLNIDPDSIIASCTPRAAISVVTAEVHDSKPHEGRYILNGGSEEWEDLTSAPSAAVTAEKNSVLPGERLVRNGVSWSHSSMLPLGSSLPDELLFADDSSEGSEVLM

[7] = test system: c-Src; experiment: as above
[8] = molecular target: Jak2 (UniProt O60674); experiment: as above
Sequence of Jak2 (O60674 whole entry, looked up): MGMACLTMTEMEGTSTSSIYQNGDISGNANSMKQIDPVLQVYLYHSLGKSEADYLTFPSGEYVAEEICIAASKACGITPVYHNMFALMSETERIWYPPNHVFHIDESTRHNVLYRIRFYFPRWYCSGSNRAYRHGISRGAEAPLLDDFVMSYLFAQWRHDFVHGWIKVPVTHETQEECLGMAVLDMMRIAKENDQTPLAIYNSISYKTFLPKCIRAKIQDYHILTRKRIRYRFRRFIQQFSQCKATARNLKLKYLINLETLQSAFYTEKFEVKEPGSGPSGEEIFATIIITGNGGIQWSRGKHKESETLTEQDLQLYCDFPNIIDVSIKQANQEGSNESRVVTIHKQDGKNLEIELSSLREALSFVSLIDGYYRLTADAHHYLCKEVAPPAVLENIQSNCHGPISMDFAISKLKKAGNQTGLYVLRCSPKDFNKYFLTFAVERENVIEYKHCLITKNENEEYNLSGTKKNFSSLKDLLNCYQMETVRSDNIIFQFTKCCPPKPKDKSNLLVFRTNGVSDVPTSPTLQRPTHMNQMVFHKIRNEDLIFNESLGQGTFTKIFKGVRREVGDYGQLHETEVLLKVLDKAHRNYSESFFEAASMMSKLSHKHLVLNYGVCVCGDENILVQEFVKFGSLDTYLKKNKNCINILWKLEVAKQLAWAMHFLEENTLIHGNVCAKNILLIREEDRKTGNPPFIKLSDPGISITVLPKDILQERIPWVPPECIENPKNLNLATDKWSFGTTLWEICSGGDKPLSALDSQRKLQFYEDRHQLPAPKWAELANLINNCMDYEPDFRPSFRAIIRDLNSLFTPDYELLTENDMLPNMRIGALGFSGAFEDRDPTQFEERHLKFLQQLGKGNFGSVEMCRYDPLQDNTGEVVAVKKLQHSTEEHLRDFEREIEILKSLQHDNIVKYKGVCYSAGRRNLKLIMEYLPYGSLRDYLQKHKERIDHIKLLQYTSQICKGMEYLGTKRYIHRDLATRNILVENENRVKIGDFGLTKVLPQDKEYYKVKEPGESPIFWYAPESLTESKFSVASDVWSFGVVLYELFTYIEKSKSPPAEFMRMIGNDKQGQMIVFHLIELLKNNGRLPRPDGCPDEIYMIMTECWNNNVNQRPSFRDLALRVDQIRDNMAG

[9] = molecular target: EPHB2 (UniProt P29323); experiment: as above
[10] = test system: AncSZ; experiment: as above
[11] = molecular target: EPHB1 (UniProt P54762); experiment: as above
[12] = test system: Fer (mouse); experiment: as above
[13] = molecular target: FGFR3 (UniProt P22607); experiment: as above
[14] = molecular target: Fes (UniProt P07332); experiment: as above
Sequence of Fes (P07332 whole entry, looked up): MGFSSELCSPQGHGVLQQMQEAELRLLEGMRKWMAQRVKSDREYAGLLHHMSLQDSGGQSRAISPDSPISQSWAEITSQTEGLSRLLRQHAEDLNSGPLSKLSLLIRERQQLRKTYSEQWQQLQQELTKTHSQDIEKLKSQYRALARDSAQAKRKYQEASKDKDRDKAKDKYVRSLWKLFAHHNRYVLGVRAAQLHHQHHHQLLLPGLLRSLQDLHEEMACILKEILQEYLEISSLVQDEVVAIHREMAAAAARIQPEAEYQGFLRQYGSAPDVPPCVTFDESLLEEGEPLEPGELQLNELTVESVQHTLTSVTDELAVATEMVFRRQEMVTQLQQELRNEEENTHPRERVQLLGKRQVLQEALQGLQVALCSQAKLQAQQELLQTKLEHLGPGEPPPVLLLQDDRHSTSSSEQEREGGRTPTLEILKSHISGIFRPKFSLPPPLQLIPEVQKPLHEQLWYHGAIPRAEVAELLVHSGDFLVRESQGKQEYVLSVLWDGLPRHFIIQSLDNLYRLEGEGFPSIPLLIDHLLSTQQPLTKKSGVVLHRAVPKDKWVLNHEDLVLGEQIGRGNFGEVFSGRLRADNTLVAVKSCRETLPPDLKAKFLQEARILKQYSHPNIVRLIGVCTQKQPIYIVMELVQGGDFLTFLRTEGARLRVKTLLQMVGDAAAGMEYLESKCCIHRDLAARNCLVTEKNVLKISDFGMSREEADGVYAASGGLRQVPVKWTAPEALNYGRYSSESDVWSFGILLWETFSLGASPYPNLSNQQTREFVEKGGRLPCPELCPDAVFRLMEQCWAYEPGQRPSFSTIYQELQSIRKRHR

[15] = molecular target: Hck (UniProt P08631); experiment: as above
Sequence of Hck (P08631 whole entry, looked up): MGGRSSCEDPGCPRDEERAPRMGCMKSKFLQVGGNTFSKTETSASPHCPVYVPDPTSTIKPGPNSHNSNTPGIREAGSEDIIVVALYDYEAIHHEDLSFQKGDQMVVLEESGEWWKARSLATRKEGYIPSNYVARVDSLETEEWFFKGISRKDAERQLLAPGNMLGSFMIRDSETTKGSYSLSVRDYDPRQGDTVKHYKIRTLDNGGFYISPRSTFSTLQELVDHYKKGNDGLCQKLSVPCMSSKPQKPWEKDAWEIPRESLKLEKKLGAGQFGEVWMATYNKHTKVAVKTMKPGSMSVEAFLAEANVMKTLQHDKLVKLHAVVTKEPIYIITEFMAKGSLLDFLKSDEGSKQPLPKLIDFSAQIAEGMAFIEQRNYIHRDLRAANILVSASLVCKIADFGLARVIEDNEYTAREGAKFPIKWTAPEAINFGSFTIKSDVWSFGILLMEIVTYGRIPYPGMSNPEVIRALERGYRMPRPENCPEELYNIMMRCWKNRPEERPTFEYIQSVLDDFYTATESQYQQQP

[16] = test system: c-Abl (mouse); experiment: as above
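Wherever SH2 binding enrichment of the phosphorylated peptide, bacterial display is given: peptide library displayed on the E. coli surface as eCPX fusions, selected cells deep-sequenced, score is each peptide's frequency after selection divided by its frequency in the input.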
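Wherever phosphorylation enrichment, bacterial display is given: 11-residue human phosphosite peptides and single-mutation variants displayed on the E. coli surface, counted by deep sequencing, each peptide's frequency after selection divided by its frequency in the unselected input library; frequency after pTyr selection over input frequency; kinase dosed for 20-30% of maximal phosphorylation in three min.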

Sequence	SH2 binding enrichment [1]	SH2 binding enrichment [2]	SH2 binding enrichment [3]	phosphorylation enrichment [4]	phosphorylation enrichment [5]	phosphorylation enrichment [6]	phosphorylation enrichment [7]	phosphorylation enrichment [8]	phosphorylation enrichment [9]	phosphorylation enrichment [10]	phosphorylation enrichment [11]	phosphorylation enrichment [12]	phosphorylation enrichment [13]	phosphorylation enrichment [14]	phosphorylation enrichment [15]	phosphorylation enrichment [16]
PICEGYALPHA [ACTC1_Y171_Y168C]	4.74	0.918	0.951	0.682	0.707	0.445	0.406	0.453	0.587	0.946	0.488	0.577	0.598	0.804	0.535	0.897
ASTDFNKRGDF [PDHA1_Y243_Y243N_YF]	0.612	0.706	0.705	0.373	0.365	0.418	0.44	0.53	0.341	0.511	0.297	0.347	0.378	0.585	0.462	0.521
TFWKKYRTFWK [CCDC70_Y125]	0.517	1.18	0.843	0.403	0.46	0.446	0.664	0.934	0.308	0.702	0.472	0.409	0.555	0.8	0.371	0.723
DSASAYADEVK [ETNPPL_Y189]	0.593	0.661	0.724	0.655	0.549	0.601	0.638	1.15	0.544	1.28	0.536	0.53	0.685	1.04	0.653	0.685
PSPMPYASCQM [FOXL2_Y215]	1.24	0.848	0.688	0.671	0.519	0.608	0.865	0.98	0.65	1.28	0.631	1	0.625	1.07	0.661	0.666
CTTIQYNYMCN [TP53_Y234_H233Q]	4.11	2.31	1.37	0.556	0.555	0.482	0.441	0.751	0.671	0.927	0.614	0.445	0.692	0.955	0.551	0.493
DVMDFYKTLRG [NR3C1_Y30]	0.47	0.537	0.718	0.393	0.451	0.394	0.342	0.685	0.423	0.719	0.404	0.41	0.484	0.728	0.434	0.571
WGLRSYFETSK [MAGED2_Y448_YF]	0.882	1.53	1.08	0.536	0.526	0.385	0.32	1.04	0.594	0.967	0.553	0.42	0.645	1.08	0.489	0.517
TLNTNYHLPPS [MT-ATP8_Y33_M28T]	0.483	0.608	0.761	2.51	0.47	0.57	0.403	0.485	0.451	0.698	1.37	0.372	1.69	0.587	0.343	0.655
LFLALYTGLVH [PIGB_Y402]	1.51	0.7	1.43	0.775	1.42	1.2	2.11	1.53	1.4	2.04	1.26	1.46	1.39	2.02	2.29	1.38
SVVVPYAPPEV [TP53_Y220_E221A]	0.463	0.602	0.766	0.589	0.422	0.423	0.427	0.719	0.499	0.756	0.508	0.474	0.595	0.814	0.43	0.73
RSAGKDDVYLI [MECP2_Y120_Y120D]	0.581	0.478	0.854	0.513	1.14	0.399	1.25	0.658	0.603	0.755	0.551	0.521	0.594	0.862	0.616	0.486
AGRTGYDNREI [BCL2_Y9]	0.504	0.718	0.779	0.461	0.427	0.429	0.537	0.848	0.394	0.779	0.392	0.5	0.509	0.955	0.367	0.974
NTGFFYDLFGG [PTPN11_Y63_D61Y_YF]	0.98	1.66	1.51	0.509	2.42	3.4	2.85	1.19	0.659	1.24	0.693	0.77	0.786	1.31	1.52	0.869
ASENVYVNIAH [CTSC_Y150]	2.4	5.86	6.93	3.4	1.99	0.826	2.21	0.986	0.924	0.881	1.92	3.79	2.05	0.827	1.94	0.8
AEMTGYVVTRW [MAPK13_Y182]	0.47	0.586	0.845	0.526	0.468	0.372	0.486	1.34	0.586	1.17	0.636	0.499	0.834	1.3	0.467	0.895
RNAAEYPLSSG [ABL1_Y139_L140P]	0.497	0.354	0.865	0.445	0.401	0.453	0.522	0.41	0.345	0.426	0.337	0.402	0.485	0.898	0.596	0.647

Sequence	SH2 binding enrichment [1]	SH2 binding enrichment [2]	SH2 binding enrichment [3]	phosphorylation enrichment [4]	phosphorylation enrichment [5]	phosphorylation enrichment [6]	phosphorylation enrichment [7]	phosphorylation enrichment [8]	phosphorylation enrichment [9]	phosphorylation enrichment [10]	phosphorylation enrichment [11]	phosphorylation enrichment [12]	phosphorylation enrichment [13]	phosphorylation enrichment [14]	phosphorylation enrichment [15]	phosphorylation enrichment [16]
DVQNEYDSNHC [ZFYVE16_Y36_A35E]	0.541	0.692	1.1	0.512	0.59	0.477	0.444	0.701	0.513	1.01	0.508	0.414	0.665	1.07	0.576	0.671
AATTAYSKPKR [MAP3K7_Y405]	0.693	0.712	0.935	0.337	0.281	0.302	0.354	0.425	0.264	0.404	0.275	0.317	0.37	0.563	0.384	0.509
VLNHAYENLTR [SYNE2_Y3255_D3253H]	10.5	1.89	26.7	0.494	0.33	0.303	0.405	0.507	0.4	0.565	0.366	0.417	0.625	0.579	0.383	0.5
GFWPRYVKVGS [NOG_Y172_R167G]	0.443	0.834	0.645	0.554	0.493	0.447	0.402	0.695	0.532	0.746	0.594	0.388	0.653	0.97	0.532	0.568
WISNRSLDFSS [PRPH2_Y184_Y184S]	0.419	0.529	0.745	0.788	0.401	0.408	0.321	0.713	0.469	0.646	0.452	0.583	0.583	0.765	0.427	0.578
EVVGRYSVHNA [MLH1_Y183]	0.42	0.597	0.668	0.457	0.487	0.421	0.497	0.698	0.451	0.633	0.437	0.405	0.513	0.717	0.488	0.589
DPKFHYDNTAG [KDR_Y1214]	0.738	0.646	0.989	0.467	0.524	0.505	0.547	0.698	0.422	0.667	0.373	0.401	0.489	0.79	0.496	0.497
KLLLKYSFHDA [RNF213_Y4141_V4146A]	0.81	1.02	1.16	0.484	0.367	0.39	0.385	0.993	0.615	1.05	0.616	0.476	0.672	1.3	0.418	0.616
IKGNMYYENSY [EGFR_Y112_R108K]	4.57	0.713	6.83	0.535	0.503	0.946	0.54	0.591	0.583	0.746	0.469	0.609	0.641	0.874	0.462	0.632
PQDVTYAQLHS [LILRB4_Y412]	0.973	1.52	0.56	0.351	4.37	0.645	2.8	0.786	0.999	0.959	1.22	0.685	0.75	1.22	6.52	0.815
RIVTTYIRERE [DNM2_Y463]	0.518	0.655	0.71	0.616	0.811	0.758	0.499	0.795	0.75	1.12	0.477	0.649	0.682	1.06	0.874	0.741
ALEKTYNTYRS [B4GALNT2_Y538]	0.448	0.612	0.819	0.391	0.517	0.312	0.925	0.497	0.349	0.568	0.336	0.35	0.439	0.658	0.438	0.433
SEDSEYYKAFE [CASQ2_Y178]	0.558	0.614	0.827	0.58	0.621	0.494	0.698	1.17	0.611	1.71	0.656	0.535	0.98	1.16	0.61	0.695
TNLVPYTRIHF [TUBA1A_Y262_P263T]	2.64	40.4	1.05	0.468	0.45	0.374	0.441	0.682	0.423	0.765	0.455	0.385	0.506	0.829	0.487	0.469
LSDGPYSNPFE [EPOR_Y485_YF]	1.91	0.486	0.82	0.491	1.77	0.534	0.856	0.862	0.628	1.47	0.547	0.822	0.614	1.16	0.843	0.701
AALSAYAAQRP [PTPRN2_Y249]	0.457	0.662	0.813	0.406	0.305	0.312	0.315	0.462	0.353	0.439	0.299	0.347	0.433	0.491	0.386	0.377
